Laboratory results as given in paper PMC5727386.

Key:
[1] = target: monobody Mb(Bcr-PH_4), displayed on yeast surface; test: flow cytometry on cells; monobody displayed on yeast surface; biotinylated target 10 nM to 1 uM in TBS with 0.1% BSA, 30 min at RT; streptavidin-DyLight650; 1:1 binding model; apparent Kd
[2] = target: Tyrosine phosphatase Sts1, Q8BGG7; test: co-immunoprecipitation (anti-Bcr-Abl/Abl IP, Sts1 immunoblot, quantified); settings: chain shown with the change; BaF3 cells stably transduced with the Bcr-Abl variants; parent: est. 1.0; read off a plot
Sequence of Tyrosine phosphatase Sts1, Q8BGG7 (Q8BGG7 whole entry): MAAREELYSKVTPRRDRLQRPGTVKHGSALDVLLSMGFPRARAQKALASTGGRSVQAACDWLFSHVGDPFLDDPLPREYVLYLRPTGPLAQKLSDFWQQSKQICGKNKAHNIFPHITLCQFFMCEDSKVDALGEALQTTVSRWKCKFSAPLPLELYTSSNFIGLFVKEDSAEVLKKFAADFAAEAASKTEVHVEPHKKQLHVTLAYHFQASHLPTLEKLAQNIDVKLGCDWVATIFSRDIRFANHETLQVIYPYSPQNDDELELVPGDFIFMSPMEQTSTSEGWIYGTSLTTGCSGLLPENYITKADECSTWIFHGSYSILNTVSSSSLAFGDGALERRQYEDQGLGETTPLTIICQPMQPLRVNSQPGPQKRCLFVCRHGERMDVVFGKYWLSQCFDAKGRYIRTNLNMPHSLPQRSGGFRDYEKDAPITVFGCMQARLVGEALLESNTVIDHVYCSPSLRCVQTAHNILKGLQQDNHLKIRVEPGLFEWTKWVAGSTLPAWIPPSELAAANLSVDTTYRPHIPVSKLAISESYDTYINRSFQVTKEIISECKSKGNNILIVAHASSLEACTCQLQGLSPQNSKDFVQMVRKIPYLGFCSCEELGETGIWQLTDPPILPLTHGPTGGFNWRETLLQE

Row | Kd [1] [nM] | ratio to parent [2] | Binder
1 | 33 |  | biotinylated Bcr-Abl PH domain (Avi-tag) (domain or fragment, biotin on the Avi-tag) GEHRQLLKDSFMVELVEGARKLRHVFLFTDLLLCTKLKKQSGGKTQQYDCKWYIPLTDLSFQMVDELEAVPNIPLVPDEELDALKIKISQIKNDIQREKRANKGSKATERLKKKLSEQESLLLLMSPSMAFRVHSRNGKSYTFLISSDYERAEWRENIREQQKKCFRSFSLTSVELQMLTNSCVKLQTVH
2 |  | 0.34 | Bcr-Abl p210, P11274 R726A (protein) MVDPVGFAEAWKAQFPDSEPPRMELRSVGDIEQELERCKASIRRLEQEVNQERFRMIYLQTLLAKEKKSYDRQRWGFRRAAQAPDGASEPRASASRPQPAPADGADPPPAEEPEARPDGEGSPGKARPGTARRPGAAASGERDDRGPPASVAALRSNFERIRKGHGQPGADAEKPFYVNVEFHHERGLVKVNDKEVSDRISSLGSQAMQMERKKSQHGAGSSVGDASRPPYRGRSSESSCGVDGDYEDAELNPRFLKDNLIDANGGSRPPWPPLEYQPYQSIYVGGMMEGEGKGPLLRSQSTSEQEKRLTWPRRSYSPRSFEDCGGGYTPDCSSNENLTSSEEDFSSGQSSRVSPSPTTYRMFRDKSRSPSQNSQQSFDSSSPPTPQCHKRHRHCPVVVSEATIVGVRKTGQIWPNDGEGAFHGDADGSFGTPPGYGCAADRAEEQRRHQDGLPYIDDSPSSSPHLSSKGRGSRDALVSGALESTKASELDLEKGLEMRKWVLSGILASEETYLSHLEALLLPMKPLKAAATTSQPVLTSQQIETIFFKVPELYEIHKEFYDGLFPRVQQWSHQQRVGDLFQKLASQLGVYRAFVDNYGVAMEMAEKCCQANAQFAEISENLRARSNKDAKDPTTKNSLETLLYKPVDRVTRSTLVLHDLLKHTPASHPDHPLLQDALRISQNFLSSINEEITPRRQSMTVKKGEHRQLLKDSFMVELVEGARKLAHVFLFTDLLLCTKLKKQSGGKTQQYDCKWYIPLTDLSFQMVDELEAVPNIPLVPDEELDALKIKISQIKNDIQREKRANKGSKATERLKKKLSEQESLLLLMSPSMAFRVHSRNGKSYTFLISSDYERAEWRENIREQQKKCFRSFSLTSVELQMLTNSCVKLQTVHSIPLTINKEDDESPGLYGFLNVIVHSATGFKQSSNLYCTLEVDSFGYFVNKAKTRVYRDTAEPNWNEEFEIELEGSQTLRILCYEKCYNKTKIPKEDGESTDRLMGKGQVQLDPQALQDRDWQRTVIAMNGIEVKLSVKFNSREFSLKRMPSRKQTGVFGVKIAVVTKRERSKVPYIVRQCVEEIERRGMEEVGIYRVSGVATDIQALKAAFDVNNKDVSVMMSEMDVNAIAGTLKLYFRELPEPLFTDEFYPNFAEGIALSDPVAKESCMLNLLLSLPEANLLTFLFLLDHLKRVAEKEAVNKMSLHNLATVFGPTLLRPSEKESKLPANPSQPITMTDSWSLEVMSQVQVLLYFLQLEAIPAPDSKRQSILFSTEV
3 |  | 0.53 | Bcr-Abl p210, P11274 R723A; K724A (protein) MVDPVGFAEAWKAQFPDSEPPRMELRSVGDIEQELERCKASIRRLEQEVNQERFRMIYLQTLLAKEKKSYDRQRWGFRRAAQAPDGASEPRASASRPQPAPADGADPPPAEEPEARPDGEGSPGKARPGTARRPGAAASGERDDRGPPASVAALRSNFERIRKGHGQPGADAEKPFYVNVEFHHERGLVKVNDKEVSDRISSLGSQAMQMERKKSQHGAGSSVGDASRPPYRGRSSESSCGVDGDYEDAELNPRFLKDNLIDANGGSRPPWPPLEYQPYQSIYVGGMMEGEGKGPLLRSQSTSEQEKRLTWPRRSYSPRSFEDCGGGYTPDCSSNENLTSSEEDFSSGQSSRVSPSPTTYRMFRDKSRSPSQNSQQSFDSSSPPTPQCHKRHRHCPVVVSEATIVGVRKTGQIWPNDGEGAFHGDADGSFGTPPGYGCAADRAEEQRRHQDGLPYIDDSPSSSPHLSSKGRGSRDALVSGALESTKASELDLEKGLEMRKWVLSGILASEETYLSHLEALLLPMKPLKAAATTSQPVLTSQQIETIFFKVPELYEIHKEFYDGLFPRVQQWSHQQRVGDLFQKLASQLGVYRAFVDNYGVAMEMAEKCCQANAQFAEISENLRARSNKDAKDPTTKNSLETLLYKPVDRVTRSTLVLHDLLKHTPASHPDHPLLQDALRISQNFLSSINEEITPRRQSMTVKKGEHRQLLKDSFMVELVEGAAALRHVFLFTDLLLCTKLKKQSGGKTQQYDCKWYIPLTDLSFQMVDELEAVPNIPLVPDEELDALKIKISQIKNDIQREKRANKGSKATERLKKKLSEQESLLLLMSPSMAFRVHSRNGKSYTFLISSDYERAEWRENIREQQKKCFRSFSLTSVELQMLTNSCVKLQTVHSIPLTINKEDDESPGLYGFLNVIVHSATGFKQSSNLYCTLEVDSFGYFVNKAKTRVYRDTAEPNWNEEFEIELEGSQTLRILCYEKCYNKTKIPKEDGESTDRLMGKGQVQLDPQALQDRDWQRTVIAMNGIEVKLSVKFNSREFSLKRMPSRKQTGVFGVKIAVVTKRERSKVPYIVRQCVEEIERRGMEEVGIYRVSGVATDIQALKAAFDVNNKDVSVMMSEMDVNAIAGTLKLYFRELPEPLFTDEFYPNFAEGIALSDPVAKESCMLNLLLSLPEANLLTFLFLLDHLKRVAEKEAVNKMSLHNLATVFGPTLLRPSEKESKLPANPSQPITMTDSWSLEVMSQVQVLLYFLQLEAIPAPDSKRQSILFSTEV
